Data from patent publication US20240025997A1 (NGM BIOPHARMACEUTICALS, published 2024).

How the values were obtained:
human ILT4 on cells = target: T1, human ILT4 on cells (human, UniProt Q8N423 22-597); test: flow cytometry, fluorescently labelled antibody on immune cell subsets of PBMC / red-cell-depleted whole blood
T1 construct: also called LILRB2; human ILT4 expressed on 293T cells
Protocol: Flow cytometry analysis of blood immune cells was performed on human and cyno PBMC and whole blood. PBMC were prepared from a leukopak (Allcells Inc.) by centrifugation through ficoll, washing with PBS and freezing in cryopreservation buffer in liquid nitrogen until use. Whole blood (Allcells Inc.) was obtained fresh and red blood cells (RBC) depleted using ammonium chloride RBC lysing solution (Biolegend). PBMC or whole blood samples were stained with a fluorescently labeled antibody panel to distinguish various immune subsets (monocytes, B cells, NK cells, CD4+ and CD8+ T cells, neutrophils and eosinophils). Samples were further stained with fluorescently labeled isotype, 27F9 (ILT2 specific), 48A5 (ILT4 specific), 73D1, and Hz73D1.v1. The number of ILT2 and ILT4 molecules per cell of each immune subset was estimated by incubation with Quantum Simply Cellular microspheres followed by flow cytometry analysis.

Human ILT2-Fc = Human ILT2-Fc (human, UniProt Q8NHL6 24-461, limits assumed); test: SPR (Biacore) competition: blocking of human ILT2-Fc binding to HLA-A, 25 C
Protocol: In addition to the reporter cell system, the inhibitory activity of anti-ILT2/ILT4 antibodies towards the interaction between ILT2 and MHC I molecules, and the interaction between ILT4 and MHC I molecules was evaluated using the Biacore system. Human ILT2-Fc and ILT4-Fc were used as target receptors and their interaction with an exemplary MHC-I molecule (HLA-A) was assayed in the presence or absence of an exemplary anti-ILT2/ILT4 antibody Hz73D1.v1 at 25° C. Anti-human ILT2 (clone 27F9) or ILT4 (clone 48A5) antibodies were used as tool reagents to dissect ILT2- and ILT4-specific blocking activities. Anti-IL2/ILT4 antibodies produced a dose-dependent reduction in the interaction between ILT2 and HLA-A, as well as between ILT4 and HLA-A. IC50s of the antibodies tested are shown in Table 16.

soluble human ILT2-ECD [1] = target: T2, soluble human ILT2-ECD (human, UniProt Q8NHL6 24-461); test: Biacore competition: antibody titrated against 20 nM ILT2-ECD, mixture injected over biotinylated HLA-A*1101 on a NeutrAvidin chip; blocked ligand HLA-A*1101
T2 construct: also called LILRB1 extracellular domain
Protocol: (§1) As part of the characterization process, the ability of exemplary antibodies to inhibit or block the interaction of ILT2 or ILT4 with their natural ligands was evaluated in competition experiments using a Biacore system. As described herein, the natural ligands of ILT2 and ILT4 include, but are not limited to, HLA class I molecules, including HLA-A, HLA-B, HLA-C, HLA-E, and HLA-G. Biotinylated HLA-A*1101 was captured in high amounts on a NeutrAvidin chip surface. Antigen-antibody complexes were prepared with (i) ILT2-ECD and anti-ILT2 antibody 27F9, anti-ILT4 antibody 48A5, or anti-ILT2/ILT4 antibody Hz73D1.v1 and (ii) ILT4-ECD and anti-ILT2 antibody 27F9, anti-ILT4 antibody 48A5, or anti-ILT2/ILT4 antibody Hz73D1.v1. The antibody concentration of each antibody was titrated from 0.09-100 nM and the concentration of human ILT2-ECD or ILT4-ECD was kept constant at 20 nM. The complexes were mixed in a 96-well microplate and each was injected onto the HLA-A-coated chip surface. The measured signal (response unit, RU) was plotted against the antibody concentration.

[2] = target: T3, human ILT4 chimeric reporter receptor (ILT4 extracellular domain fused to PILRbeta … (human, UniProt Q8N423 22-460)); test: reporter cell assay (not a direct binding assay): human ILT4 reporter cells co-cultured with Raji cells, %GFP+ by FACS
T3 construct: On the surface of NFAT-GFP reporter cells; associates with DAP12; also called ILT4 reporter cells; Human ILT4 reporter construct; not shown: The PILRbeta transmembrane/intracellular domain
Protocol: The ability of anti-ILT2/ILT4 antibodies to inhibit the interaction between ILT2 and/or ILT4 and MHC I molecules was evaluated using a reporter cell system. […] In this chimeric receptor system, the extracellular domain of the receptor of interest (e.g., ILT2 or ILT4) is fused with the transmembrane/intracellular domain of PILRβ that associates with the adaptor protein DAP12. When the chimeric receptor (e.g., ILT2 or ILT-4) is activated by binding to a ligand (e.g., MHC I molecule), DAP12 becomes phosphorylated and activates an NFAT-responsive promoter which drives GFP expression (see, e.g., Deng et al., 2014, Blood, 124:924-935).
Reporter cells were washed after staining and resuspended at 1×10⁶ cells/ml in X-VIVO™ 15 media (Lonza). […] For assays with Raji cells: anti-ILT2 antibody 27F9, anti-ILT4 antibody 48A5, anti-ILT2/ILT4 antibody 73D1 and Hz73D1.v1, and a control antibody were serially diluted and 50 μl was added to each well of a 96-well flat-bottom cell culture plate. […] The plates were incubated overnight at 37° C. The next day, reporter cells were assayed for GFP expression by FACS.

soluble human ILT4-ECD [3] = target: T4, soluble human ILT4-ECD (human, UniProt Q8N423 22-460); test: Biacore competition: antibody titrated against 20 nM ILT4-ECD, mixture injected over biotinylated HLA-A*1101 on a NeutrAvidin chip
T4 construct: also called LILRB2 extracellular domain
Protocol: as §1

soluble human ILT2-ECD [4] = target: T2, soluble human ILT2-ECD; test: SPR (Biacore), antibody captured on Protein A chip, soluble ILT-ECD injected (1.6-200 nM), 25 C
Protocol: (§2) The binding affinities of anti-ILT2 and anti-ILT4 antibodies were measured using a Biacore system (GE Healthcare LifeSciences). Equilibrium dissociation constant (KD) measurements were carried out with purified antibodies to evaluate their binding to human ILT2, human ILT4, and rhesus ILT2. Briefly, purified anti-ILT2 antibody 27F9, anti-ILT4 antibodies 47C8 and 48A5, and anti-ILT2/ILT4 antibodies 47H6, 51A1, 64A12, 73C4, and 73D1 were captured on a Sensor Chip Protein A (GE HealthCare). The surface of the Biacore Sensor Chip Protein A consists of a carboxymethylated dextran matrix with a recombinant Protein A variant covalently attached. Soluble human ILT2-ECD, human ILT4-ECD, or rhesus ILT2-ECD were injected at a flow rate of 30 μL/min at 25° C. The ILT2 or ILT4 proteins were used at concentrations ranging from 1.6-200 nM in PBS-P buffer with 2 fold dilutions. Kinetic data were collected over time and fit using the simultaneous global fit equation to yield affinity constants (KD values) for each antibody.

human ILT2 on cells = human ILT2 on cells (human, UniProt Q8NHL6 24-650); test: cell-based or functional assay
soluble human ILT4-ECD [5] = target: T4, soluble human ILT4-ECD; test: SPR (Biacore), antibody captured on Protein A chip, soluble ILT-ECD injected (1.6-200 nM), 25 C
Protocol: as §2

soluble human ILT2-ECD [6] = target: T2, soluble human ILT2-ECD; test: SPR (Biacore), antibody captured on Protein A chip, soluble human ILT2-ECD injected, 25 C
Protocol: as §2

T2 sequence (Q8NHL6 24-461): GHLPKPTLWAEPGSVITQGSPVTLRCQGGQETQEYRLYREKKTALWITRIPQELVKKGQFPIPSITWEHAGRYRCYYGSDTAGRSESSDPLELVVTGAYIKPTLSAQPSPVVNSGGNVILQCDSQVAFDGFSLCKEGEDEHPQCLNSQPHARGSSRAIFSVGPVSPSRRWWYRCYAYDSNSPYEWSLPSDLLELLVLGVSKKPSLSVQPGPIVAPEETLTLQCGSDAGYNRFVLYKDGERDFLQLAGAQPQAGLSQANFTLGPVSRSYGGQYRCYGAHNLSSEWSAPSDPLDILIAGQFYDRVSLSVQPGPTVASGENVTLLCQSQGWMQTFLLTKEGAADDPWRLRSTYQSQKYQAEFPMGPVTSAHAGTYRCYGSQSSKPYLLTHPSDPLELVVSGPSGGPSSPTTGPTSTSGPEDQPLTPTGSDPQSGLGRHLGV
T4 sequence (Q8N423 other isoform, or with tags, fused parts or gaps): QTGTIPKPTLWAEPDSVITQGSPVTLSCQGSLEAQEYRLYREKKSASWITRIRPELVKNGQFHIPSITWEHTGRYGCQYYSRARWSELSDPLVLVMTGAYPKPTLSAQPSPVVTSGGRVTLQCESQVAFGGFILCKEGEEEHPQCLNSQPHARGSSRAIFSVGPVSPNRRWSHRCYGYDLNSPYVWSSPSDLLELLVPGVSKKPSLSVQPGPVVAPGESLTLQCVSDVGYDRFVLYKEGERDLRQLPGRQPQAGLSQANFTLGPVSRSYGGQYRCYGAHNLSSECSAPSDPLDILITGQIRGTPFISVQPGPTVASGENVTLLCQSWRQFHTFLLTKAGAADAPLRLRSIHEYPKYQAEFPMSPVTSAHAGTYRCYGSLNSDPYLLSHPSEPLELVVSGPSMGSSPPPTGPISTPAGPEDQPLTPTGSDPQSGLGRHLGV
Sequence of Human ILT2-Fc (Q8NHL6 24-461 limits assumed): as the sequence (Q8NHL6 24-461) above
Sequence of human ILT2 on cells (Q8NHL6 24-650): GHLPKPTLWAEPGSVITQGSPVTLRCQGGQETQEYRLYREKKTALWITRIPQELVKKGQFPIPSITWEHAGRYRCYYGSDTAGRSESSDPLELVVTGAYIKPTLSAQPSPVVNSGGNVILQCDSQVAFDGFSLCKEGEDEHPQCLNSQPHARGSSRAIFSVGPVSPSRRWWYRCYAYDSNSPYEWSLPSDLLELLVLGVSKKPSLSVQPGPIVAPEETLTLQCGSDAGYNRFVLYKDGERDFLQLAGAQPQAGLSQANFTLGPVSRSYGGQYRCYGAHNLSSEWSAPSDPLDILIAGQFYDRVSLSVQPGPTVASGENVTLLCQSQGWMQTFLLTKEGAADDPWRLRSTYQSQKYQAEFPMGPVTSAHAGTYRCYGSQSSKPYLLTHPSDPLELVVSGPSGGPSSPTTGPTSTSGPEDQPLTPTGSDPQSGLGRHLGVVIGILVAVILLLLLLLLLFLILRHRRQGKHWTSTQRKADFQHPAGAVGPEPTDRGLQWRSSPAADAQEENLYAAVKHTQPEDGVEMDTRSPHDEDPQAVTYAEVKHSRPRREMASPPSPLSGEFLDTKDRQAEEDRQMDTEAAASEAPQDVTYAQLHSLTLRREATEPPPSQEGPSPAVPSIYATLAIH
T1 sequence (Q8N423 other isoform, or with tags, fused parts or gaps): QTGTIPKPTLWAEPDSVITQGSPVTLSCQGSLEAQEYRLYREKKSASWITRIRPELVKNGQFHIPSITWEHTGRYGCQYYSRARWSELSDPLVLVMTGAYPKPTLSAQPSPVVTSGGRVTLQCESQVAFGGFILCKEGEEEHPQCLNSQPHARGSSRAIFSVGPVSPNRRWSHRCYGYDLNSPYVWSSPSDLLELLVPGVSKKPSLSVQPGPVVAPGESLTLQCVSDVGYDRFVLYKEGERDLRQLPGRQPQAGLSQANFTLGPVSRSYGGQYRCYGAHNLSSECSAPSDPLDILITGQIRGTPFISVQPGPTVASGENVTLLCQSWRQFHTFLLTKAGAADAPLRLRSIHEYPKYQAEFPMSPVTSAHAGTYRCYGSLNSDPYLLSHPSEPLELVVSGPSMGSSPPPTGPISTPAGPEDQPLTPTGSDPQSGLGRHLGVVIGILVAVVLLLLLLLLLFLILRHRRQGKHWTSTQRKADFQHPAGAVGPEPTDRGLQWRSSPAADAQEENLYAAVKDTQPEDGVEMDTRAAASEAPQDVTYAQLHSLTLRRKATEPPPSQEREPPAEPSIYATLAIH

B1: anti-ILT2 antibody 27F9 (antibody, V domains shown)
VH: QVQLKESGPGLVAPSQSLSITCTVSGFSLTNYGVSWVRQPPGKGLEWLGIIWGDGSTNYHSALISRLSISKDNSKSQVFLKLNSLQADDTATYYCAKPNWDTYAMDFWGQGTSVTVSS
VL: DIQMTQTTSSLSASLGDRVTISCRASQDISNFLNWYQQKPDGTVKLLIYCTSKLHSGVPSRFSGSGSETDYSLTISNLEQEDIATYFCQQGNTLPPTFGGGTKLEII
notes: Mouse hybridoma antibody; also called clone 27F9; anti-ILT2 (27F9)
**Q.** Does B1 bind (human ILT4 on cells)?
**A.** Result: no binding (tested: not given)

**Q.** What about the IC50 (Human ILT2-Fc) of the same binder?
**A.** The IC50 was 8.9 nM.

**Q.** What about the “IC50 (read off the curve)” value (soluble human ILT2-ECD [1]) of the same binder?
**A.** Its value is ~9 nM.

**Q.** Does B1 bind [2]?
**A.** Result: no binding (tested: Log nM about 1.5 (about 30 nM))

**Q.** Does B1 bind (soluble human ILT4-ECD [3])?
**A.** Result: no binding (tested: about 200 nM)

**Q.** And the Kd (soluble human ILT2-ECD [4])?
**A.** Its Kd is 0.26 nM.

**Q.** And the koff (soluble human ILT2-ECD [4])?
**A.** Its koff is 5.4e-05 s⁻¹.

**Q.** What about the kon (soluble human ILT2-ECD [4]) of the same binder?
**A.** Its kon is 210000 M⁻¹ s⁻¹.

**Q.** What about the “EC50, NKL cytolytic activity against 721.221-HLA-G target cells” value (human ILT2 on cells) of the same binder?
**A.** The value was 0.064 nM.

B2: anti-ILT4 antibody 47C8 (antibody, V domains shown)
VH: EVQLQQSGPDLVKPGASVKISCKASGYSFTGYYMHWVKQSHGKSLEWIGRVYPNNGDTSYNQKFKVKAILTVDKSSSTAYMELRSLTSEDSAVYYCARGATVVESLFAYWGQGTLVTVSA
VL: DIVLTQSPASLAVSLGQRATISCRASESVDNYGNNFLHWYQQKPGQPPKLLIYRTSNLESGIPARFSGSGSRTDFTLTINPVEADDVATYYCQQSNEDPYTFGGGTKLEIK
notes: Mouse hybridoma antibody
**Q.** With B2 as the binder, how does the Kd (soluble human ILT4-ECD [5]) read?
**A.** The Kd was 0.074 nM.

**Q.** And the koff (soluble human ILT4-ECD [5])?
**A.** The koff was 2.5e-05 s⁻¹.

**Q.** What about the kon (soluble human ILT4-ECD [5]) of the same binder?
**A.** The kon was 340000 M⁻¹ s⁻¹.

**Q.** Does B2 bind (soluble human ILT2-ECD [6])?
**A.** Result: no binding (tested: 1.6-200 nM)
